Measurements published in the supplement of paper PMC11246515.
± gives the standard deviation of the averaged measurements.

Experiment: total protein half-life in vivo (active degradation + dilution); higher = more stable protein
[1] = E. coli NCM3722 delta-clpP delta-lon delta-hslV, growth: N-lim chemostat, doubling time 6 h
[2] = E. coli NCM3722 delta-clpP, growth: N-lim chemostat, doubling time 6 h
[3] = E. coli NCM3722 delta-hslV, growth: N-lim chemostat, doubling time 6 h
[4] = E. coli NCM3722 delta-lon, growth: N-lim chemostat, doubling time 6 h
[5] = E. coli NCM3722 delta-smpB, growth: N-lim chemostat, doubling time 6 h
[6] = wild type E. coli NCM3722, growth: C-lim chemostat, doubling time 3 h
[7] = wild type E. coli NCM3722, growth: C-lim chemostat, doubling time 6 h
[8] = wild type E. coli NCM3722, growth: C-lim chemostat, doubling time 12 h
[9] = wild type E. coli NCM3722, growth: N-lim chemostat, doubling time 6 h
[10] = wild type E. coli NCM3722, growth: N-lim chemostat, doubling time 12 h
[11] = wild type E. coli NCM3722, growth: P-lim chemostat, doubling time 6 h
[12] = wild type E. coli NCM3722, growth: P-lim chemostat, doubling time 12 h

MERYESLFAQLKERKEGAFVPFVTLGDPGIEQSLKIIDTLIEAGADALELGIPFSDPLADGPTIQNATLRAFAAGVTPAQCFEMLALIRQKHPTIPIGLLMYANLVFNKGIDEFYAQCEKVGVDSVLVADVPVEESAPFRQAALRHNVAPIFICPPNADDDLLRQIASYGRGYTYLLSRAGVTGAENRAALPLNHLVAKLKEYNAAPPLQGFGISAPDQVKAAIDAGAAGAISGSAIVKIIEQHINEPEKMLAALKVFVQPMKAATRS [P0A877]
total protein half-life in vivo [1]: 3.93 ± 0.57 h | total protein half-life in vivo [2]: 3.89 ± 0.84 h | total protein half-life in vivo [3]: 3.44 ± 0.066 h | total protein half-life in vivo [4]: 4.07 ± 0.48 h | total protein half-life in vivo [5]: 3.69 ± 0.17 h | total protein half-life in vivo [6]: 3.084 ± 0.021 h | total protein half-life in vivo [7]: 5.81 ± 0.23 h | total protein half-life in vivo [8]: 8.972 ± 0.077 h | total protein half-life in vivo [9]: 3.61 ± 0.21 h | total protein half-life in vivo [10]: 5.06 ± 0.87 h | total protein half-life in vivo [11]: 5.39 ± 0.16 h | total protein half-life in vivo [12]: 12 ± 0.5 h

MESKRLDNAALAAGISPNYINAHGKPQSISAETKRRLLDAMHQRTATKVAVTPVPNVMVYTSGKKMPMVVEGSGEYSWLLTTEEGTQYKGHVTGGKAFNLPTKLPEGYHTLTLTQDDQRAHCRVIVAPKRCYEPQALLNKQKLWGACVQLYTLRSEKNWGIGDFGDLKAMLVDVAKRGGSFIGLNPIHALYPANPESASPYSPSSRRWLNVIYIDVNAVEDFHLSEEAQAWWQLPTTQQTLQQARDADWVDYSTVTALKMTALRMAWKGFAQRDDEQMAAFRQFVAEQGDSLFWQAAFDALHAQQVKEDEMRWGWPAWPEMYQNVDSPEVRQFCEEHRDDVDFYLWLQWLAYSQFAACWEISQGYEMPIGLYRDLAVGVAEGGAETWCDRELYCLKASVGAPPDILGPLGQNWGLPPMDPHIITARAYEPFIELLRANMQNCGALRIDHVMSMLRLWWIPYGETADQGAYVHYPVDDLLSILALESKRHRCMVIGEDLGTVPVEIVGKLRSSGVYSYKVLYFENDHEKTFRAPKAYPEQSMAVAATHDLPTLRGYWECGDLTLGKTLGLYPDEVVLRGLYQDRELAKQGLLDALHKYGCLPKRAGHKASLMSMTPTLNRGLQRYIADSNSALLGLQPEDWLDMAEPVNIPGTSYQYKNWRRKLSATLESMFADDGVNKLLKDLDRRRRAAAKKK
total protein half-life in vivo [1]: 6.24 ± 0.17 h | total protein half-life in vivo [2]: 6.29 ± 0.23 h | total protein half-life in vivo [4]: 4.12 ± 1.7 h | total protein half-life in vivo [5]: 5.57 ± 0.12 h | total protein half-life in vivo [7]: 6.27 ± 0.46 h | total protein half-life in vivo [8]: 13.5 ± 1.4 h | total protein half-life in vivo [9]: 6.03 ± 0.061 h | total protein half-life in vivo [10]: 12.1 ± 0.58 h | total protein half-life in vivo [11]: 5.25 ± 0.14 h | total protein half-life in vivo [12]: 10.3 ± 0.19 h

MESKVVVPAQGKKITLQNGKLNVPENPIIPYIEGDGIGVDVTPAMLKVVDAAVEKAYKGERKISWMEIYTGEKSTQVYGQDVWLPAETLDLIREYRVAIKGPLTTPVGGGIRSLNVALRQELDLYICLRPVRYYQGTPSPVKHPELTDMVIFRENSEDIYAGIEWKADSADAEKVIKFLREEMGVKKIRFPEHCGIGIKPCSEEGTKRLVRAAIEYAIANDRDSVTLVHKGNIMKFTEGAFKDWGYQLAREEFGGELIDGGPWLKVKNPNTGKEIVIKDVIADAFLQQILLRPAEYDVIACMNLNGDYISDALAAQVGGIGIAPGANIGDECALFEATHGTAPKYAGQDKVNPGSIILSAEMMLRHMGWTEAADLIVKGMEGAINAKTVTYDFERLMDGAKLLKCSEFGDAIIENM
total protein half-life in vivo [1]: 4.7 ± 0.38 h | total protein half-life in vivo [2]: 4.36 ± 0.53 h | total protein half-life in vivo [3]: 4.05 ± 0.061 h | total protein half-life in vivo [4]: 4.61 ± 0.056 h | total protein half-life in vivo [5]: 4.1 ± 0.047 h | total protein half-life in vivo [6]: 3.16 ± 0.068 h | total protein half-life in vivo [7]: 5.584 ± 0.048 h | total protein half-life in vivo [8]: 10.1 ± 0.64 h | total protein half-life in vivo [9]: 4.08 ± 0.24 h | total protein half-life in vivo [10]: 6.47 ± 0.1 h | total protein half-life in vivo [11]: 5.73 ± 0.1 h | total protein half-life in vivo [12]: 12.3 ± 0.41 h

MESLLTLPLAGEARVRILQITDTHLFAQKHEALLGVNTWESYQAVLEAIRPHQHEFDLIVATGDLAQDQSSAAYQHFAEGIASFRAPCVWLPGNHDFQPAMYSALQDAGISPAKRVFIGEQWQILLLDSQVFGVPHGELSEFQLEWLERKLADAPERHTLLLLHHHPLPAGCSWLDQHSLRNAGELDTVLAKFPHVKYLLCGHIHQELDLDWNGRRLLATPSTCVQFKPHCSNFTLDTIAPGWRTLELHADGTLTTEVHRLADTRFQPDTASEGY [P0AEW4]
total protein half-life in vivo [1]: 5.15 ± 0.77 h | total protein half-life in vivo [2]: 4.65 ± 0.26 h | total protein half-life in vivo [3]: 4.6 ± 0.28 h | total protein half-life in vivo [4]: 4.98 ± 0.096 h | total protein half-life in vivo [5]: 4.34 ± 0.65 h | total protein half-life in vivo [6]: 2.948 ± 0.017 h | total protein half-life in vivo [7]: 5.4 ± 0.74 h | total protein half-life in vivo [8]: 11.6 ± 1.3 h | total protein half-life in vivo [9]: 4.56 ± 0.88 h | total protein half-life in vivo [10]: 8.5 ± 0.45 h | total protein half-life in vivo [11]: 4.435 ± 0.035 h | total protein half-life in vivo [12]: 8.69 ± 0.43 h

MESLMPWDARDTMSLRTEFVLFASQDGANIRSLCRRFGISPATGYKWLQRWAQEGAAGLQDRPRIPHHSPNRSSDDITALLRMAHDRHERWGARKIKRWLEDQGHTMPAFSTVHNLMARHGLLPGASPGIPATGRFEHDAPNRLWQMDFKGHFPFGGGRCHPLTLLDDHSRFSLCLAHCTDERRETVQQQLVSVFERYGLPDRMTMDNGSPWGDTTGTWTALELWLMRLGIRVGHSRPYHPQTQGKLERFHRSLKAEVLQGKWFADSGELQRAFDHWRTVYNLERPHEALDMAVPGSRYQPSARQYSGNTTPPEYDEGVMVRKVDISGKLSVKGVSLSAGKAFRGERVGLKEMQEDGSYEVWWYSTKVGVIDLKKKSITMGKGC
total protein half-life in vivo [1]: 3.5 ± 0.88 h | total protein half-life in vivo [2]: 3.06 h | total protein half-life in vivo [7]: 2.18 h | total protein half-life in vivo [8]: 5.67 h | total protein half-life in vivo [10]: 4.45 h

MESLSEGTTAGYQQIHDGIIHLVDSARTETVRSVNALMTATYQEIGRRIVEFEQGGEARAAYGAQLIKRLSKDLCLRYKRGFSAKNLRQMRLFYLFFQHVEIHQTMSGELTPLGIPQTPSAEFPSAKIWQTLSAKSFPLPRSTYVRLLSVKNADARSFYEKETLRCGWSVRQLERQIATQFYERTLLSHDKSAMLQQHAPAETHILPQQAIRDPFVLEFLELKDEYSESDFEEALINHLMDFMLELGDDFAFVGRQRRLRIDDNWFRVDLLFFHRRLRCLLIVDLKVGKFSYSDAGQMNMYLNYAKEHWTLPDENPPIGLVLCAEKGAGEAHYALAGLPNTVLASEYKMQLPDEKRLADELVRTQAVLEEGYRRR
total protein half-life in vivo [3]: 5.34 h | total protein half-life in vivo [7]: 5.89 h

MESPLGSDLARLVRIWRALIDHRLKPLELTQTHWVTLHNIHQLPPDQSQIQLAKAIGIEQPSLVRTLDQLEEKGLISRQTCASDRRAKRIKLTEKAEPLISEMEAVINKTRAEILHGISAEELEQLITLIAKLEHNIIELQAKG [P0A8W2]
total protein half-life in vivo [1]: 5.958 ± 0.04 h | total protein half-life in vivo [2]: 5.81 ± 0.18 h | total protein half-life in vivo [3]: 5.88 ± 0.54 h | total protein half-life in vivo [5]: 5.79 ± 0.084 h | total protein half-life in vivo [6]: 3.38 ± 0.4 h | total protein half-life in vivo [7]: 5.19 ± 0.19 h | total protein half-life in vivo [8]: 11.38 ± 0.033 h | total protein half-life in vivo [9]: 5.01 ± 0.34 h | total protein half-life in vivo [10]: 11 ± 2.7 h | total protein half-life in vivo [11]: 4.64 ± 1.1 h | total protein half-life in vivo [12]: 9.76 ± 0.57 h
